No end group written: not given here. TMR = tetramethyl rhodamine dye
What was measured:
Assay in all cases: fluorescence polarisation; 25 °C; unlabeled Rb^P titrated against 1.5 nM TMR-E2F1^TD or 7.5 nM TMR-E7^LxCxE; 25 mM Tris pH 8.0, 200 mM NaCl, 1 mM DTT, 0.1% Tween-20; 2 min incubation; quadratic fit; apparent Kd for the variants, Kd for WT
Conditions in all cases: both partners purified
Rb^P V654L = target: T1, Rb^P V654L (human, UniProt P06400 380-788, V654L)
T1 construct: also called variant 47
T1 sequence (looked up): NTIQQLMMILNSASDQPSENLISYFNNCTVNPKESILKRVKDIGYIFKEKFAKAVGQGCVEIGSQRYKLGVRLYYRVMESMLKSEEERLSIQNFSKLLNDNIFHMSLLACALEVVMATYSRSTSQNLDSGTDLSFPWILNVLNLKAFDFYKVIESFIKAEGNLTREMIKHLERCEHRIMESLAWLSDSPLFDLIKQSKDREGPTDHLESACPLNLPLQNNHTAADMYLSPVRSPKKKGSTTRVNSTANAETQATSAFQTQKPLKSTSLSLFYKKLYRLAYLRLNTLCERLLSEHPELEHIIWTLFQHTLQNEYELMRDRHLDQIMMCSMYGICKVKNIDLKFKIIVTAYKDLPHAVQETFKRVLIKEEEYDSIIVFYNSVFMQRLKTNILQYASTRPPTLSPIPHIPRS

Rb^P Q504E = target: T2, Rb^P Q504E (human, UniProt P06400 380-788, Q504E)
T2 construct: also called variant 19
T2 sequence (looked up): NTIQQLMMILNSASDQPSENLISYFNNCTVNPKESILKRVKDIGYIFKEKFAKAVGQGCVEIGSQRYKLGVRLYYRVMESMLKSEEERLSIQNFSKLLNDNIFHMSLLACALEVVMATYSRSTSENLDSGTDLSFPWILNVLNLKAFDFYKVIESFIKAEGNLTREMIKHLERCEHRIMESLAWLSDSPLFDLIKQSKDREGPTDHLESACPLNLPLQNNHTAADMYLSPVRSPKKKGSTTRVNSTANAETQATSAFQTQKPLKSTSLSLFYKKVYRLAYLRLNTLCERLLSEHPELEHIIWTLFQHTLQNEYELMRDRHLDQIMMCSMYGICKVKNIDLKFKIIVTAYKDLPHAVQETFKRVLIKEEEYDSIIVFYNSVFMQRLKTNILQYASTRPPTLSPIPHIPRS

Rb^P M695I = target: T3, Rb^P M695I (human, UniProt P06400 380-788, M695I)
T3 construct: also called variant 61
T3 sequence (looked up): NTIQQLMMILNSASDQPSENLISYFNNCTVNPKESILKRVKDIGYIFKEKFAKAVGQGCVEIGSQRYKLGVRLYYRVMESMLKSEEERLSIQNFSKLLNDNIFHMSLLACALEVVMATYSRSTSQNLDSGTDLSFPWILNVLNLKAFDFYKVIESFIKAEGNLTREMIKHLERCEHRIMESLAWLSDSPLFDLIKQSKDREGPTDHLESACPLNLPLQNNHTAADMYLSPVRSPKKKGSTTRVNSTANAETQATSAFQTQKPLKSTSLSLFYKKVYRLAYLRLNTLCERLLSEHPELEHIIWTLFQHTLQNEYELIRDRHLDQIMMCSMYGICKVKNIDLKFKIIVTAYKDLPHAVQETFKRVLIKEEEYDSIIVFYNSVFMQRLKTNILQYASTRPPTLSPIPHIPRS

Rb^P R656W = target: T4, Rb^P R656W (human, UniProt P06400 380-788, R656W)
T4 construct: also called variant 49
T4 sequence (looked up): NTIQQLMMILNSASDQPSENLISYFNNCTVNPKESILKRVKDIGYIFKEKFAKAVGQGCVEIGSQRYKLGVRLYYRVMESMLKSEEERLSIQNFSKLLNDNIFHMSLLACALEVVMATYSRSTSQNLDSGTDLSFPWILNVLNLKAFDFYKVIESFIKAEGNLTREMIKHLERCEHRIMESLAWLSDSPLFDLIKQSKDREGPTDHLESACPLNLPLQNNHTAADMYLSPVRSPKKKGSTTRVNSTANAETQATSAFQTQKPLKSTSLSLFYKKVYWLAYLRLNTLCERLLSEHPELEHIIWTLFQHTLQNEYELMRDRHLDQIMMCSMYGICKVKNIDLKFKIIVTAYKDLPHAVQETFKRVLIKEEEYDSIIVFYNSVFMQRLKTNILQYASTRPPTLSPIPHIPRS

Rb^P I703V = target: T5, Rb^P I703V (human, UniProt P06400 380-788, I703V)
T5 construct: also called variant 65
T5 sequence (looked up): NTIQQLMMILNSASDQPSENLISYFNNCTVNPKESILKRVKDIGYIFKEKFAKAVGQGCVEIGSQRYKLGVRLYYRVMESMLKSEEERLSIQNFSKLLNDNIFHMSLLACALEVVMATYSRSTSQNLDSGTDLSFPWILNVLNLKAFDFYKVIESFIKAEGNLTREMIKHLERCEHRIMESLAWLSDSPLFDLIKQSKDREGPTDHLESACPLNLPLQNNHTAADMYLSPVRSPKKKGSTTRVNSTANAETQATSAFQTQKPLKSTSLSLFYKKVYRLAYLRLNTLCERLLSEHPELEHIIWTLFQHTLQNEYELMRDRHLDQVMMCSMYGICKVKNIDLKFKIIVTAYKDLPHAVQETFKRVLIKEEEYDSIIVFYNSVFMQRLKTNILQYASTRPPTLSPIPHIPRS

B1: TMR-E2F1^TD, peptide of the E2F1 transactivation domain (peptide)
peptide: {TMR}-GEGIRDLFDCDFGDLTPLD
notes: also called E2F^TD; source: synthetic peptide, bought: GenScript
For B1, which Kd (Rb^P V654L) is on record?
Its Kd is 18 nM.

And the Kd (Rb^P Q504E)?
The Kd was 18 nM.

What about the Kd (Rb^P M695I) of the same binder?
Its Kd is 43 nM.

What about the Kd (Rb^P R656W) of the same binder?
The Kd was 39 nM.

What about the Kd (Rb^P I703V) of the same binder?
Its Kd is 20 nM.

B2: TMR-E7^LxCxE, LxCxE peptide of the E7 oncoprotein from HPV (peptide)
peptide: DLYCYEQLN
modifications: also: TMR label, position not given here
notes: source: synthetic peptide, bought: GenScript
For B2, which Kd (Rb^P V654L) is on record?
Its Kd is 11 nM.

What about the Kd (Rb^P Q504E) of the same binder?
The Kd was 5 nM.

And the Kd (Rb^P M695I)?
Its Kd is 11 nM.

What about the Kd (Rb^P R656W) of the same binder?
The Kd was 8 nM.

What about the Kd (Rb^P I703V) of the same binder?
Its Kd is 21 nM.

Reference: article PMC11931385, “Structural and functional analysis of cancer-associated missense variants in the retinoblastoma protein pocket domain” (The Journal of Biological Chemistry, 2025)
